Consider 25 molecules from US20130225506A1 (POLYPHOR, published 2013).

This assay concerns the target chemokine receptor CXCR7 (UniProt P25106 1-362, limits assumed). Nature of the assay: cell-based or functional assay.

Square brackets hold non-standard residues; d marks the D form. Primed or numbered codes have the meaning given here. Phe(4-CF3) = N[C@@H](Cc1ccc(C(F)(F)F)cc1)C(=O)O; dPro(cis-4-NH2) = N[C@H]1CN[C@@H](C(=O)O)C1; Pro(3S-OH) = O=C(O)[C@H]1NCC[C@@H]1O; hArg = N=C(N)NCCCC[C@H](N)C(=O)O; Tic = O=C(O)[C@@H]1Cc2ccccc2CN1; dTic = O=C(O)[C@H]1Cc2ccccc2CN1; Cha = N[C@@H](CC1CCCCC1)C(=O)O; aThr = C[C@H](O)[C@H](N)C(=O)O; Orn(A41) = not defined here; Orn(A56) = not defined here; Orn(Ar2) = not defined here; Orn(Ar4) = not defined here; Orn(Ar7) = not defined here; dOrn = NCCC[C@@H](N)C(=O)O; hSer = N[C@@H](CCO)C(=O)O; Nle = CCCC[C@H](N)C(=O)O; Orn = NCCC[C@H](N)C(=O)O; dPip′ = not defined here; A56 = not defined here; Ar7 = not defined here; Tiq = not defined here

Sequence of chemokine receptor CXCR7 (P25106 whole entry): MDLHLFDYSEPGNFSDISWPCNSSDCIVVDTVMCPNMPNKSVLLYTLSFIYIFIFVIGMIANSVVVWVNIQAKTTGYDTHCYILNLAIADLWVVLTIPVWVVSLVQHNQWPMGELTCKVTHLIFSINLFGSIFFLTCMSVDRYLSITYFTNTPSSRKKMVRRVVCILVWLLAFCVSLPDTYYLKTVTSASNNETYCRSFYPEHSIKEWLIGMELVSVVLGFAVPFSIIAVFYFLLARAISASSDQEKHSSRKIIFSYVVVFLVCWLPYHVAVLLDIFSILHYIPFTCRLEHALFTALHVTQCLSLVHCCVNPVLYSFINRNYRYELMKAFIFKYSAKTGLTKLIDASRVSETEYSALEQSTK

B1: cyclo(-Ile-^DArg-Arg-Trp-^DTic-Thr-) (peptide)
peptide: cyclo(I[dR]RW[dTic]T)
SMILES: CC[C@H](C)[C@@H]1NC(=O)[C@H]([C@@H](C)O)NC(=O)[C@H]2Cc3ccccc3CN2C(=O)[C@H](Cc2c[nH]c3ccccc23)NC(=O)[C@H](CCCNC(=N)N)NC(=O)[C@@H](CCCNC(=N)N)NC1=O
For B1, the “β-Arrestin EC50” value was found to be 14.2 nM.

B2: cyclo(-Ala(Tet)-^DPhe-Trp-Arg-^DPro((4R)NH2)-Tic-) (peptide)
peptide: cyclo([Ala(Tet)][dF]WR[dPro(cis-4-NH2)][Tic])
Take B2: the “β-Arrestin EC50” value came to 28.1 nM.

B3: cyclo(-Ala(1Pyraz)-^DPhe-Trp-Arg-^DPro((4R)NH2)-Tic-) (peptide)
peptide: cyclo([Ala(1Pyraz)][dF]WR[dPro(cis-4-NH2)][Tic])
As to B3, the “β-Arrestin EC50” value is 29.9 nM.

B4: cyclo(-Ile-^DThr-Arg-Trp-^DPro-Thr-) (peptide)
peptide: cyclo(I[dT]RW[dP]T)
SMILES: CC[C@H](C)[C@@H]1NC(=O)[C@H]([C@@H](C)O)NC(=O)[C@H]2CCCN2C(=O)[C@H](Cc2c[nH]c3ccccc23)NC(=O)[C@H](CCCNC(=N)N)NC(=O)[C@@H]([C@H](C)O)NC1=O
For the molecule B4, the “β-Arrestin EC50” value was determined as 53.2 nM.

B5: cyclo(-Ile-^DArg-Arg-Phe(4CF3)-^DPro-Thr-) (peptide)
peptide: cyclo(I[dR]R[Phe(4-CF3)][dP]T)
SMILES: CC[C@H](C)[C@@H]1NC(=O)[C@H]([C@@H](C)O)NC(=O)[C@H]2CCCN2C(=O)[C@H](Cc2ccc(C(F)(F)F)cc2)NC(=O)[C@H](CCCNC(=N)N)NC(=O)[C@@H](CCCNC(=N)N)NC1=O
In the case of B5, the “β-Arrestin EC50” value is 4.5 nM.

B6: cyclo(-Ile-^DArg-Orn(A41)-Trp-^DPro-Thr-) (peptide)
peptide: cyclo(I[dR][Orn(A41)]W[dP]T)
modifications: reading uncertain; also: printed as cyclo(-Ile-^DArg-Orn(A41)-Trp-^DPro-Thr-)
Take B6: the “β-Arrestin EC50” value worked out at 518 nM.

B7: cyclo(-Ile-^DArg-Orn(Ar2)-Trp-^DPro-Thr-) (peptide)
peptide: cyclo(I[dR][Orn(Ar2)]W[dP]T)
modifications: reading uncertain; also: printed as cyclo(-Ile-^DArg-Orn(Ar2)-Trp-^DPro-Thr-)
Regarding B7, the “β-Arrestin EC50” value is 453 nM.

B8: cyclo(-Trp-^DPhe-Trp-Orn(A56)-^DPro((4R)NH2)-Tic-) (peptide)
peptide: cyclo(W[dF]W[Orn](A56)[dPro(cis-4-NH2)][Tic])
modifications: reading uncertain; also: printed as cyclo(-Trp-^DPhe-Trp-Orn(A56)-^DPro((4R)NH2)-Tic-)
For the molecule B8, the “β-Arrestin EC50” value was found to be 33.4 nM.

B9: cyclo(-Nle-^DArg-Arg-Trp-^DPro-Thr-) (peptide)
peptide: cyclo([Nle][dR]RW[dP]T)
SMILES: CCCC[C@@H]1NC(=O)[C@H]([C@@H](C)O)NC(=O)[C@H]2CCCN2C(=O)[C@H](Cc2c[nH]c3ccccc23)NC(=O)[C@H](CCCNC(=N)N)NC(=O)[C@@H](CCCNC(=N)N)NC1=O
As for B9, the “β-Arrestin EC50” value worked out at 2.8 nM.

B10: cyclo(-Ile-^DArg-hArg-Trp-^DPro-Thr-) (peptide)
peptide: cyclo(I[dR][hArg]W[dP]T)
SMILES: CC[C@H](C)[C@@H]1NC(=O)[C@H]([C@@H](C)O)NC(=O)[C@H]2CCCN2C(=O)[C@H](Cc2c[nH]c3ccccc23)NC(=O)[C@H](CCCCNC(=N)N)NC(=O)[C@@H](CCCNC(=N)N)NC1=O
B10: the “β-Arrestin EC50” value is 11 nM.

B11: cyclo(-Cha-^DArg-Arg-Trp-^DPro-Thr-) (peptide)
peptide: cyclo([Cha][dR]RW[dP]T)
SMILES: C[C@@H](O)[C@@H]1NC(=O)[C@H]2CCCN2C(=O)[C@H](Cc2c[nH]c3ccccc23)NC(=O)[C@H](CCCNC(=N)N)NC(=O)[C@@H](CCCNC(=N)N)NC(=O)[C@H](CC2CCCCC2)NC1=O
As for B11, the “β-Arrestin EC50” value came out at 37.7 nM.

B12: cyclo(-Orn(A56)-^DPhe-Trp-Arg-^DPro((4R)NH2)-Tic-) (peptide)
peptide: cyclo([Orn(A56)][dF]WR[dPro(cis-4-NH2)][Tic])
modifications: reading uncertain; also: printed as cyclo(-Orn(A56)-^DPhe-Trp-Arg-^DPro((4R)NH2)-Tic-)
Regarding B12, the “β-Arrestin EC50” value stood at 181 nM.

B13: cyclo(-Ile-^DArg-Orn-Trp-^DPro-Thr-) (peptide)
peptide: cyclo(I[dR][Orn]W[dP]T)
SMILES: CC[C@H](C)[C@@H]1NC(=O)[C@H]([C@@H](C)O)NC(=O)[C@H]2CCCN2C(=O)[C@H](Cc2c[nH]c3ccccc23)NC(=O)[C@H](CCCN)NC(=O)[C@@H](CCCNC(=N)N)NC1=O
With B13, the “β-Arrestin EC50” value is 816 nM.

B14: cyclo(-Ile-^DArg-Arg-Trp-^DPro-hSer-) (peptide)
peptide: cyclo(I[dR]RW[dP][hSer])
SMILES: CC[C@H](C)[C@@H]1NC(=O)[C@H](CCO)NC(=O)[C@H]2CCCN2C(=O)[C@H](Cc2c[nH]c3ccccc23)NC(=O)[C@H](CCCNC(=N)N)NC(=O)[C@@H](CCCNC(=N)N)NC1=O
In the case of B14, the “β-Arrestin EC50” value amounted to 347 nM.

B15: cyclo(-Trp-^DPhe-Trp-Orn(A56)-^DPro((4R)NH2)-Tiq-) (peptide)
peptide: cyclo(W[dF]W[Orn](A56)[dPro(cis-4-NH2)][Tiq])
modifications: reading uncertain; also: printed as cyclo(-Trp-^DPhe-Trp-Orn(A56)-^DPro((4R)NH2)-Tiq-)
For B15, the “β-Arrestin EC50” value worked out at 46.9 nM.

B16: cyclo(-Leu-^DArg-Arg-Trp-^DPro-Thr-) (peptide)
peptide: cyclo(L[dR]RW[dP]T)
SMILES: CC(C)C[C@@H]1NC(=O)[C@H]([C@@H](C)O)NC(=O)[C@H]2CCCN2C(=O)[C@H](Cc2c[nH]c3ccccc23)NC(=O)[C@H](CCCNC(=N)N)NC(=O)[C@@H](CCCNC(=N)N)NC1=O
With B16, the “β-Arrestin EC50” value came out at 5.3 nM.

B17: cyclo(-Ile-^DArg-Arg-Phe-^DPro-Thr-) (peptide)
peptide: cyclo(I[dR]RF[dP]T)
SMILES: CC[C@H](C)[C@@H]1NC(=O)[C@H]([C@@H](C)O)NC(=O)[C@H]2CCCN2C(=O)[C@H](Cc2ccccc2)NC(=O)[C@H](CCCNC(=N)N)NC(=O)[C@@H](CCCNC(=N)N)NC1=O
Regarding B17, the “β-Arrestin EC50” value amounted to 46.4 nM.

B18: cyclo(-Ile-^DArg-Orn(Ar4)-Trp-^DPro-Thr-) (peptide)
peptide: cyclo(I[dR][Orn(Ar4)]W[dP]T)
modifications: reading uncertain; also: printed as cyclo(-Ile-^DArg-Orn(Ar4)-Trp-^DPro-Thr-)
B18: the “β-Arrestin EC50” value stood at 4.6 nM.

B19: cyclo(-Trp-^DPhe-Trp-Orn(A56)-^DPip-Pro((3S)OH)-) (peptide)
peptide: cyclo(W[dF]W[Orn](A56)[dPip′][Pro(3S-OH)])
modifications: reading uncertain; also: printed as cyclo(-Trp-^DPhe-Trp-Orn(A56)-^DPip-Pro((3S)OH)-)
Turning to B19, the “β-Arrestin EC50” value was found to be 14 nM.

B20: cyclo(-Ile-^DOrn-Arg-Trp-^DPro-Thr-) (peptide)
peptide: cyclo(I[dOrn]RW[dP]T)
SMILES: CC[C@H](C)[C@@H]1NC(=O)[C@H]([C@@H](C)O)NC(=O)[C@H]2CCCN2C(=O)[C@H](Cc2c[nH]c3ccccc23)NC(=O)[C@H](CCCNC(=N)N)NC(=O)[C@@H](CCCN)NC1=O
Consider B20, for which the “β-Arrestin EC50” value stood at 23.3 nM.

B21: cyclo(-Ile-^DArg-Orn(Ar7)-Trp-^DPro-Thr-) (peptide)
peptide: cyclo(I[dR][Orn(Ar7)]W[dP]T)
modifications: reading uncertain; also: printed as cyclo(-Ile-^DArg-Orn(Ar7)-Trp-^DPro-Thr-)
B21: the “β-Arrestin EC50” value turned out to be 336 nM.

B22: cyclo(-Ile-^DArg-Arg-Trp-^DPro-alloThr-) (peptide)
peptide: cyclo(I[dR]RW[dP][aThr])
SMILES: CC[C@H](C)[C@@H]1NC(=O)[C@H]([C@H](C)O)NC(=O)[C@H]2CCCN2C(=O)[C@H](Cc2c[nH]c3ccccc23)NC(=O)[C@H](CCCNC(=N)N)NC(=O)[C@@H](CCCNC(=N)N)NC1=O
On to B22, for which the “β-Arrestin EC50” value turned out to be 292 nM.

B23: cyclo(-Ile-^DArg-Orn(A56)-Trp-^DPro-Thr-) (peptide)
peptide: cyclo(I[dR][Orn(A56)]W[dP]T)
modifications: reading uncertain; also: printed as cyclo(-Ile-^DArg-Orn(A56)-Trp-^DPro-Thr-)
In the case of B23, the “β-Arrestin EC50” value was determined as 3.2 nM.

B24: cyclo(-Orn(Ar2)-^DPhe-Trp-Arg-^DPro((4R)NH2)-Tic-) (peptide)
peptide: cyclo([Orn(Ar2)][dF]WR[dPro(cis-4-NH2)][Tic])
modifications: reading uncertain; also: printed as cyclo(-Orn(Ar2)-^DPhe-Trp-Arg-^DPro((4R)NH2)-Tic-)
Turning to B24, the “β-Arrestin EC50” value was 209 nM.

B25: cyclo(-Trp-^DPhe-Trp-Orn(Ar7)-^DPro((4R)NH2)-Tic-) (peptide)
peptide: cyclo(W[dF]W[Orn](Ar7)[dPro(cis-4-NH2)][Tic])
modifications: reading uncertain; also: printed as cyclo(-Trp-^DPhe-Trp-Orn(Ar7)-^DPro((4R)NH2)-Tic-)
As to B25, the “β-Arrestin EC50” value was 145 nM.
